Kd data for one molecule are collected here from article PMC5648601.

For orientation: Kd means the concentration at which binding is half-saturated.

This experiment addresses recombinant His-MYC-bHLH-LZ protein. The experiment in a line: BLI.

B1: recombinant GST-MKK3 protein (enzyme)
chain: MESPASSQPASMPQSKGKSKRKKDLRISCMSKPPAPNPTPPRNLDSRTFITIGDRNFEVEADDLVTISELGRGAYGVVEKVRHAQSGTIMAVKRIRATVNSQEQKRLLMDLDINMRTVDCFYTVTFYGALFREGDVWICMELMDTSLDKFYRKVLDKNMTIPEDILGEIAVSIVRALEHLHSKLSVIHRDVKPSNVLINKEGHVKMCDFGISGYLVDSVAKTMDAGCKPYMAPERINPELNQKGYNVKSDVWSLGITMIEMAILRFPYESWGTPFQQLKQVVEEPSPQLPADRFSPEFVDFTAQCLRKNPAERMSYLELMEHPFFTLHKTKKTDIAAFVKEILGEDS
As to B1, the dissociation constant (Kd) was determined as 225 nM.
